This experiment has as its target biotinylated hACE2-fc (residues 18-740) (human) (UniProt Q9BYF1). Description: SPR.

The term Kd denotes a measure of binding affinity in units of concentration. Low values mean a tighter complex, high ones a looser complex.

Sequence of UniProt Q9BYF1 (Q9BYF1 18-740): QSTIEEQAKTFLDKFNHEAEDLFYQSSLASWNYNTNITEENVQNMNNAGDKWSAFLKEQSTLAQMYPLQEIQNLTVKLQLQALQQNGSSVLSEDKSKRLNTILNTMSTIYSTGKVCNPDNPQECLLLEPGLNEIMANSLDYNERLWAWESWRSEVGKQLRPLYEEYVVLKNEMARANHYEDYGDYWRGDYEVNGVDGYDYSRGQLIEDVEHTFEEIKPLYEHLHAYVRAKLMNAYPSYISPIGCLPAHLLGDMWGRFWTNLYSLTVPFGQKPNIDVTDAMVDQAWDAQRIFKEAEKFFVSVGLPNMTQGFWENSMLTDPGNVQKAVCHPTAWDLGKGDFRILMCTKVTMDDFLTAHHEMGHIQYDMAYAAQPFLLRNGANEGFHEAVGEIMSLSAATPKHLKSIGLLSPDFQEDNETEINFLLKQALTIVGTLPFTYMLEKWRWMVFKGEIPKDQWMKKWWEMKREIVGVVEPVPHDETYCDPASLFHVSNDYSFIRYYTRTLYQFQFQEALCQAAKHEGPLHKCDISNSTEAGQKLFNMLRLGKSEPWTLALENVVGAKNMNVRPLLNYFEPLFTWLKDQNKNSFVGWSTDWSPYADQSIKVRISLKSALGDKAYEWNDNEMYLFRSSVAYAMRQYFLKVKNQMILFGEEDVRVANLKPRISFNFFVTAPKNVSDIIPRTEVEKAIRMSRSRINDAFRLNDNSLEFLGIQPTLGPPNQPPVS

On to “SARS-CoV-2 B.1.1.7 trimeric spike protein (domain or fragment)”, for which the KD1 (first step, two state fit) was 193 nM; the Kd was 0.04 nM; the ka1 (first step, two state fit) stood at 1.31e+06 M⁻¹ s⁻¹; the ka2 (second step, two state fit) came out at 0.053 M⁻¹ s⁻¹. In addition, the kd1 (first step, two state fit) was 0.025 s⁻¹ and the kd2 (second step, two state fit) is 0.00011 s⁻¹.
In turn, “SARS-CoV-2 wt trimeric spike protein (domain or fragment)” returned a KD1 (first step, two state fit) of 1.8 nM; a Kd of 0.041 nM; a ka1 (first step, two state fit) of 782000 M⁻¹ s⁻¹; a ka2 (second step, two state fit) of 0.0105 M⁻¹ s⁻¹. This substance came in with a kd1 (first step, two state fit) of 0.00141 s⁻¹ and a kd2 (second step, two state fit) of 0.000244 s⁻¹.

For the origin of these results see paper doi:10.1101/2021.07.14.452313.
